Source: patent US20200317768A1 (published 2020)
Numbering of substitutions follows the chain as printed.

B1: M103205H795-MY209/M103202L889-SK1 (antibody, human IgG1, kappa)
heavy: QVTLKESGPVLVKPTETLTLTCTVSGIDLSHDDISWVRQAPGKGLEWVGIISYAGSTYYASWAKGRLTISKDTSKNQVVLTMTNMDPVDTATYYCARGVPAYSHGGDLWGQGTLVTVSSASTKGPSVFPLAPSSKSTSGGTAALGCLVKDYFPEPVTVSWNSGALTSGVHTFPAVLQSSGLYSLSSVVTVPSSSLGTQTYICNVNHKPSNTKVDKKVEPKSCDKTHTCPPCPAPELLNGPSVFLFPPKPKDTLMISRTPEVTCVVVDVSDEDPEVKFNWYVDGVEVHNAKTKPREELYNSTYRVVSVLTVLHQDWLNGKEYKCKVSNTALPKPIEKTISKAKGQPREPQVYTLPPSREEMTKNQVSLTCLVKGFYPSDIAVEWESNGQPENNYKTTPPVLDSDGSFFLYSKLTVDKSRWQQGNVFSCSVMHEALHNHYTQKSLSLSP
light: DIVMTQSPATLSLSPGERATLSCTSSQSVYHANWLSWFQQKPGQPPKLLIYWASTLAYGVPSRFSGSGSGTDFTLTISSLQPEDAATYYCAGGYGGGRYAFGQGTKVEIKRTVAAPSVFIFPPSDEQLKSGTASVVCLLNNFYPREAKVQWKVDNALQSGNSQESVTEQDSKDSTYSLSSTLTLSKADYEKHKVYACEVTHQGLSSPVTKSFNRGEC
B2: M103205H795-MY271/M103202L889-SK1 (antibody, human IgG1, kappa)
heavy: B1 heavy with N238V, L297Q, T328K, P398K
light: B1 light
B3: M103205H795-MY242/M103202L889-SK1 (antibody, human IgG1, kappa)
heavy: B1 heavy with N238G, P240I, L297Q, T328K, P398K
light: B1 light
B4: M103205H795-MY270/M103202L889-SK1 (antibody, human IgG1, kappa)
heavy: B1 heavy with N238H, L297Q, T328K, P398K
light: B1 light
B5: M103205H795-MY228/M103202L889-SK1 (antibody, human IgG1, kappa)
heavy: B1 heavy with N238G, G239Y, T328K
light: B1 light
B6: M103205H795-MY272/M103202L889-SK1 (antibody, human IgG1, kappa)
heavy: B1 heavy with N238Q, L297Q, T328K, P398K
light: B1 light
B7: M103205H795-MY269/M103202L889-SK1 (antibody, human IgG1, kappa)
heavy: B1 heavy with N238M, L297Q, T328K, P398K
light: B1 light
B8: M103205H795-MY213/M103202L889-SK1 (antibody, human IgG1, kappa)
heavy: B1 heavy with L297Q, T328K, P398K
light: B1 light
B9: M103205H795-MY219/M103202L889-SK1 (antibody, human IgG1, kappa)
heavy: B1 heavy with N238G, G239Y, L297Q, T328K
light: B1 light
B10: M103205H795-MY229/M103202L889-SK1 (antibody, human IgG1, kappa)
heavy: B1 heavy with N238G, G239Y, T328K, P398K
light: B1 light
B11: M103205H795-MY227/M103202L889-SK1 (antibody, human IgG1, kappa)
heavy: B1 heavy with N238G, G239Y, L297Q, T328K, P398K
light: B1 light

Molecular target: T1, cynomolgus monkey FcγRIIa1 extracellular domain, C-terminal His-tag (cynomolgus monkey)
T1 construct: also called cyno FcγRIIa1; cynoFcgRIIa1; not shown: His-tag added to C-terminus
T1 chain: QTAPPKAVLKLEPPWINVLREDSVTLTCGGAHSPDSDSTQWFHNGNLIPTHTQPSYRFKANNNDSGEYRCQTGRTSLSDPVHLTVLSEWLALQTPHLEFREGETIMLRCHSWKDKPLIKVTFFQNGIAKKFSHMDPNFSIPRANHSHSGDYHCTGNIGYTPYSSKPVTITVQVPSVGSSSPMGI
Assay: SPR (Biacore), KD of SG1 / KD of variant;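 also: relative to parent M103205H795-SG1 carrying the SG1 human heavy chain constant region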
Experimental: (§1) The kinetic analysis of interactions between these antibodies and FcγR was carried out using BIACORE® T200 or BIACORE® 4000 (GE Healthcare). HBS-EP+ (GE Healthcare) was used as the running buffer, and the measurement temperature was set to 25° C. A chip produced by immobilizing Protein A. Protein A/G or mouse anti-human IgG kappa light chain (BD Biosciences) onto a Series S Sensor Chip CM4 or CM5 (GE Healthcare) by the amine-coupling method was used. […] After the measurement, the antibody captured on the chip was washed off by allowing reaction with 10 mM glycine-HCl, pH1.5 and 25 mM NaOH so that the chip was regenerated and used repeatedly. The sensorgrams obtained as measurement results were analyzed by the 1:1 Langmuir binding model using the BIACORE® Evaluation Software to calculate the binding rate constant ka (L/mol/s) and dissociation rate constant kd (l/s), and the dissociation constant KD (mol/L) was calculated from these values. […] Regarding such interactions, KD values were calculated using the following 1:1 binding model described in BIACORE® T100 Software Handbook BR1006-48 Edition AE.
(§2) The behavior of interacting molecules according to the 1:1 binding model on BIACORE® can be described by Equation 1: Req=C·R max/(KD+C)+RI, wherein, Req is a plot of steady-state binding levels to analyte concentration. C is concentration, RI is bulk refractive index contribution in the sample, and Rmax is analyte binding capacity of the surface. When this equation is rearranged, KD can be expressed as Equation 2: KD=C·Rmax/(Req−RI)−C. KD can be calculated by substituting the values of Rmax, RI, and C into Equation 1 or Equation 2. From the current measurement conditions, RI=0, C=2 μmol/L can be used.

Row | Binder | KD fold (SG1 = 1)
1 | B1 | 5.1 fold
2 | B2 | 4.7 fold
3 | B3 | 0.7 fold
4 | B4 | 1.8 fold
5 | B5 | 1.1 fold
6 | B6 | 1.9 fold
7 | B7 | 1.4 fold
8 | B8 | 6 fold
9 | B9 | 0.5 fold
10 | B10 | 2 fold
11 | B11 | 1.7 fold

Molecular target: T2, cynomolgus monkey FcγRIIa2 extracellular domain, C-terminal His-tag (cynomolgus monkey)
T2 construct: also called cyno FcγRIIa2; cynoFcgRIIa2; not shown: His-tag added to C-terminus
T2 chain: T1 chain with P95T, T121A, I127K, A128S, K130N, D135N, R142Q
Assay: SPR (Biacore), KD of SG1 / KD of variant;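 also: relative to parent M103205H795-SG1 carrying the SG1 human heavy chain constant region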
Experimental: as §1, §2

Row | Binder | KD fold (SG1 = 1)
12 | B1 | 7.4 fold
13 | B2 | 7.3 fold
14 | B3 | 1.2 fold
15 | B4 | 2.4 fold
16 | B5 | 1 fold
17 | B6 | 2.7 fold
18 | B7 | 2 fold
19 | B8 | 9.6 fold
20 | B9 | 1.3 fold
21 | B10 | 2.3 fold
22 | B11 | 2 fold

Molecular target: T3, cynomolgus monkey FcγRIIa3 extracellular domain, C-terminal His-tag (cynomolgus monkey)
T3 construct: also called cyno FcγRIIa3; cynoFcgRIIa3; not shown: His-tag added to C-terminus
T3 chain: T1 chain with P95T, T121A, A128S, H133P, D135N
Assay: SPR (Biacore), KD of SG1 / KD of variant;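 also: relative to parent M103205H795-SG1 carrying the SG1 human heavy chain constant region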
Experimental: as §1, §2

Row | Binder | KD fold (SG1 = 1)
23 | B1 | 8.9 fold
24 | B2 | 3.5 fold
25 | B3 | 2.9 fold
26 | B4 | 6.5 fold
27 | B5 | 4.7 fold
28 | B6 | 2.7 fold
29 | B7 | 2.7 fold
30 | B8 | 13.1 fold
31 | B9 | 3.1 fold
32 | B10 | 8.5 fold
33 | B11 | 6.3 fold

Molecular target: T4, cynomolgus monkey FcγRIIb extracellular domain, C-terminal His-tag (cynomolgus monkey)
T4 construct: also called cyno FcγRIIb; cynoFcγRIIb; not shown: His-tag added to C-terminus
T4 chain: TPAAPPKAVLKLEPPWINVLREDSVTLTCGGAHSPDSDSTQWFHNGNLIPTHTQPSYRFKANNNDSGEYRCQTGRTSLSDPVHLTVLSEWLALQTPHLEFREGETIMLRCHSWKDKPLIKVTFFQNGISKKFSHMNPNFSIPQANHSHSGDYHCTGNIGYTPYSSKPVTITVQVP
Assay: SPR (Biacore), KD of SG1 / KD of variant;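 also: relative to parent M103205H795-SG1 carrying the SG1 human heavy chain constant region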
Experimental: as §1, §2

Row | Binder | KD fold (SG1 = 1)
34 | B1 | 9.5 fold
35 | B2 | 9.5 fold
36 | B3 | 1.6 fold
37 | B4 | 3.4 fold
38 | B5 | 1.6 fold
39 | B6 | 4.2 fold
40 | B7 | 2.8 fold
41 | B8 | 11.9 fold
42 | B9 | 1.4 fold
43 | B10 | 3.8 fold
44 | B11 | 3.5 fold

Molecular target: T5, human FcγRIIaH extracellular domain, C-terminal His-tag (human, UniProt P12318 34-217)
T5 construct: also called human FcγRIIa (type H); FcgRIIaH; not shown: His-tag added to C-terminus
T5 sequence: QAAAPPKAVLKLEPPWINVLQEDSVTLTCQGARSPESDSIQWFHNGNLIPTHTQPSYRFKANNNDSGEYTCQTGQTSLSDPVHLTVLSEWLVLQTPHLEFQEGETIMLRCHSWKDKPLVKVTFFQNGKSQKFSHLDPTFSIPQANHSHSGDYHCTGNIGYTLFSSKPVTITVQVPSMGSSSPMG
Assay: SPR (Biacore), KD of SG1 / KD of variant
Experimental: as §1, §2

Row | Binder | KD fold (SG1 = 1)
45 | B1 | 1.2 fold
46 | B2 | 15.7 fold
47 | B3 | 0.8 fold
48 | B4 | 9.5 fold
49 | B5 | 0.3 fold
50 | B6 | 7.5 fold
51 | B7 | 2.3 fold
52 | B8 | 2 fold
53 | B9 | 0.2 fold
54 | B10 | 0.7 fold
55 | B11 | 0.5 fold

Molecular target: T6, human FcγRIIaR extracellular domain, C-terminal His-tag (human, UniProt P12318 34-217)
T6 construct: also called human FcγRIIa (type R); FcgRIIaR; not shown: His-tag added to C-terminus
T6 chain: T5 sequence with H134R
Assay: SPR (Biacore), KD of SG1 / KD of variant
Experimental: as §1, §2

Row | Binder | KD fold (SG1 = 1)
56 | B1 | 1.3 fold
57 | B2 | 4.8 fold
58 | B3 | 1.7 fold
59 | B4 | 3.1 fold
60 | B5 | 6.5 fold
61 | B6 | 4.4 fold
62 | B7 | 1.5 fold
63 | B8 | 1.6 fold
64 | B9 | 6.9 fold
65 | B10 | 13 fold
66 | B11 | 17.7 fold

Molecular target: T7, human FcγRIIb extracellular domain, C-terminal His-tag (human, UniProt P31994 43-217)
T7 construct: also called FcgRIIb (human); not shown: His-tag added to C-terminus
T7 sequence: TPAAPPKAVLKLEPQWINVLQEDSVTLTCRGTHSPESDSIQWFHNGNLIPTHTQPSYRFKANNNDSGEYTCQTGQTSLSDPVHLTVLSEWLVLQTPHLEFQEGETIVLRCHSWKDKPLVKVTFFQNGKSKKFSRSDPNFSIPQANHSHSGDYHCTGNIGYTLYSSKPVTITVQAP
Assay: SPR (Biacore), KD of SG1 / KD of variant
Experimental: as §1, §2

Row | Binder | KD fold (SG1 = 1)
67 | B1 | 9.2 fold
68 | B2 | 2.2 fold
69 | B3 | 2.4 fold
70 | B4 | 1.3 fold
71 | B5 | 15.3 fold
72 | B6 | 3.5 fold
73 | B7 | 2.2 fold
74 | B8 | 12.8 fold
75 | B9 | 13.5 fold
76 | B10 | 30.7 fold
77 | B11 | 35.4 fold

Molecular target: T8, human FcγRIIIaV extracellular domain, C-terminal His-tag (human, UniProt P08637 17-208)
T8 construct: also called FcgRIIIaV; not shown: His-tag added to C-terminus
Assay: SPR (Biacore), KD of SG1 / KD of variant
Experimental: as §1, §2

T8 sequence (P08637 17-208 F176V): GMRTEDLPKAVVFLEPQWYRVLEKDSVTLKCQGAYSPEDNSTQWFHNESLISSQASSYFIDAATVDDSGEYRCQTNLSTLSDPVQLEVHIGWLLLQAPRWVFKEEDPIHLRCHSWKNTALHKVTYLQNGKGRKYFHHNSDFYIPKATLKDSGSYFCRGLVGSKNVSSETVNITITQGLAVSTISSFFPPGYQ

Row | Binder | KD fold (SG1 = 1)
78 | B1 | 0.06 fold
79 | B2 | 0.35 fold
80 | B3 | 0.25 fold
81 | B4 | 0.22 fold
82 | B5 | 0.02 fold
83 | B6 | 0.93 fold
84 | B7 | 0.74 fold
85 | B8 | 0.03 fold
86 | B9 | 0.03 fold
87 | B10 | 0.02 fold
88 | B11 | 0.04 fold
